Substitutions are numbered along the chain they refer to.

B1: chimeric anti-human BAFF-R antibody C90 (Clone 90 variable regions, human IgG1 constant regions) (antibody, V domains shown)
VH: EVQLQESGPSLVKPSQTLSLTCSVTGDSITSGYWNWIRKFPGNKLEYMGYISYSGSTYYNPSLKSRISITRDTSKNQYYLQLNSVTPEDTATYYCASPNYPFYAMDYWGQGTSVTVSS
VL: not shown
notes: also called chimeric C90; Chi90
B2: humanized C90 variant HC1 + LC3 (antibody, V domains shown)
VH: QVQLQESGPGLVKPSQTLSLTCTVSGDSITSGYWNWIRQHPGKGLEYIGYISYSGSTYYNPSLKSRVTISRDTSKNQFSLKLSSVTAADTAVYYCASPNYPFYAMDYWGQGTLVTVSS
VL: DIVMTQSPSSLSASVGDRVTITCRASESVDNYGISFMNWFQQKPGKAPKLLIYAASNLGSGVPSRFSGSGSGTDFTLTISSLQPEDFATYYCQQSKEVPWTFGQGTKVEIKR
notes: also called Humanized HC1 + LC3; Hu90 HC-1 with Hu90 LC-3
B3: humanized C90 variant HC2 + LC1 (antibody, V domains shown)
VH: B2 VH with Q1E, F78Y
VL: EIVLTQSPATLSLSPGERATLSCRASESVDNYGISFLNWFQQKPGQAPRLLIYAASNRATGIPARFSGSGSGTDFTLTISSLEPEDFAVYYCQQSKEVPWTFGGGTKVEIKR
notes: also called Humanized HC2 + LC1; Hu90 HC-2 with Hu90 LC-1
B4: humanized C90 variant HC3 + LC1 (antibody, V domains shown)
VH: B2 VH with Q1E, Q16E, T23S, H40P, F78Y, K81R, V92L, L113R
VL: B3 VL
notes: also called Humanized HC3 + LC1; Hu90 HC-3 with Hu90 LC-1
B5: humanized C90 variant HC3 + LC3 (antibody, V domains shown)
VH: B2 VH with Q1E, Q16E, T23S, H40P, F78Y, K81R, V92L, L113R
VL: B2 VL
notes: also called Humanized HC3 + LC3; Hu90 HC-3 with Hu90 LC-3
B6: humanized C90 variant HC1 + LC2 (antibody, V domains shown)
VH: B2 VH
VL: B3 VL with E1D, L37M
notes: also called Humanized HC1 + LC2; Hu90 HC-1 with Hu90 LC-2
B7: humanized C90 variant HC2 + LC2 (antibody, V domains shown)
VH: B2 VH with Q1E, F78Y
VL: B3 VL with E1D, L37M
notes: also called Hu90 HC-2 with Hu90 LC-2
B8: humanized C90 variant HC1 + LC1 (antibody, V domains shown)
VH: B2 VH
VL: B3 VL
notes: also called Humanized HC1 + LC1; Hu90 HC-1 with Hu90 LC-1
B9: humanized C90 variant HC3 + LC2 (antibody, V domains shown)
VH: B2 VH with Q1E, Q16E, T23S, H40P, F78Y, K81R, V92L, L113R
VL: B3 VL with E1D, L37M
notes: also called Humanized HC3 + LC2; Hu90 HC-3 with Hu90 LC-2
B10: chimeric anti-human BAFF-R antibody C55 (Clone 55 variable regions, human IgG1 constant regions) (antibody, V domains shown)
VH: QVTLKESGPGILKPSQTLSLTCSFSGFSLSTSGMGVGWIRQPSGKGLEWLAHIWWDDDKYYNSSLKSHLTISKDTSRNQVFLKITSVDTADTATYYCARSFGYGLDYWGQGTTLTVSS
VL: DIQMTQTTSSLSASLGDRVTISCSASQDISNYLNWYQQKPDGTVKLLIYYTSSLHSGVPSRFSGSGSGTDYSLTISSLEPEDIATYYCHQFSELPWTFGGGTKLEIK
modifications: Conjugated to Alexa Fluor 488 in FIG. 1D (sites not given)
notes: also called chimeric C55; Chi55
B11: mouse monoclonal antibody from hybridoma Clone 55 (antibody, V domains shown)
VH: B10 VH
VL: B10 VL
notes: also called mouse mAb C55

One test deals with T1, commercial, recombinant extracellular domain of human BAFF-R (human, UniProt Q96RJ3 1-78).
T1 construct: extracellular domain
Nature of the test: Biacore analysis; antibody as loading sample, recombinant human BAFF-R ECD as sample. The method, then:
The chimeric anti-BAFF-R antibody C90 was humanized with several variants. The humanization process took into consideration and analysis of the variable region and specifically the CDRs of the chimeric antibody. From there, three variants for each heavy and light chain was developed with varying degrees of human-likeness ranging from 1 the most human to 3 the most conservative to the chimeric. The variants were combined to produce 9 variants. Biacore analysis was performed on each variant as well as the chimeric parental C90 to determine their equilibrium dissociation constant K_D. The antigen was commercial, recombinant extracellular domain of human BAFF-R.
In general terms: In SPR one partner is held on a chip, and binding of the other changes the refractive index at the surface.
Broadly, the koff is the rate constant with which the complex falls apart. As usually defined, the kon is a measure of how fast the partners come together. On to B1, for which the koff was determined as 0.002 s⁻¹ and the kon was 990000 M⁻¹ s⁻¹.

Usually Kd stands for the concentration at which binding is half-saturated. In the case of B2, the Kd was 5 nM, the koff amounted to 0.0021 s⁻¹ and the kon came out at 410000 M⁻¹ s⁻¹.

With B3, the Kd stood at 2.6 nM, the koff came out at 0.002 s⁻¹ and the on-rate (kon) is 770000 M⁻¹ s⁻¹.

Consider B4, for which the Kd is 3.8 nM, the koff turned out to be 0.0031 s⁻¹ and the kon was found to be 820000 M⁻¹ s⁻¹.

B5: the Kd amounted to 3.4 nM, the koff amounted to 0.0023 s⁻¹ and the kon was 680000 M⁻¹ s⁻¹.

Consider B6, for which the dissociation constant (Kd) was determined as 3.7 nM, the koff amounted to 0.0023 s⁻¹ and the kon was 620000 M⁻¹ s⁻¹.

Turning to B7, the Kd turned out to be 3.6 nM, the koff amounted to 0.0022 s⁻¹ and the kon was 610000 M⁻¹ s⁻¹.

Take B8: the Kd stood at 4 nM, the koff amounted to 0.0024 s⁻¹ and the kon is 610000 M⁻¹ s⁻¹.

Regarding B9, the dissociation constant (Kd) is 3.1 nM, the koff was determined as 0.0037 s⁻¹ and the on-rate (kon) came to 1.2e+06 M⁻¹ s⁻¹.

In another test the target is T2, human BAFF-R, endogenous, on human B-cell lines, primary lymphoma cells and normal B cells (human, UniProt Q96RJ3 1-184).
T2 construct: whole, on cells; also called BAFF-R-positive human MCL lines (Mino, JeKo-1, REC-1, JVM-13, Z-138); NHL lines JeKo-1, SU-DHL-6, Raji, RL
Nature of the test: flow cytometry, Alexa Fluor 488-conjugated chimeric antibody on primary NHL patient samples. Background: In flow cytometry, cells or beads pass a laser one at a time.
With B10, the binding result is on record as “binds”.

For a further test, the target named is T2, human BAFF-R, endogenous, on human …. Nature of the test: flow cytometry, hybridoma supernatant at 1/10, 1/50 and 1/200 with anti-mouse IgG-APC on Mino; 293T as negative control. The text has this: Figure 8: FIG. 8 are flow cytometry results showing verification that selected hybridoma clones bind MCL cells. Binding of hybridoma Clone 53, 55, 67, and 90 supernatants (1/10, 1/50, and 1/200 dilutions) to Mino (mantle cell lymphoma) and 293T (negative control) cell lines assessed by flow cytometry performed with anti-mouse IgG-APC.
B11: the binding result is on record as “binds”.

(Values after patent US11161908 (CITY OF HOPE, dated 2021).)
